This note sets out measurements from patent US11155586B2, “Cystine knot scaffold platform” (Genentech, Inc., priority 2015, dated 2021).

Positions of bridges follow the written chain, without caps; N, C: chain ends. Residues, ends and D or L forms follow the SMILES beside them.

This assay addresses T1, hVEGF(8-109) (Homo sapiens, UniProt P15692).
T1 construct: hVEGF(8-109) or BSA were coated on 384-well MAXISORP™ immunoplates
T1 sequence (P15692 214-315): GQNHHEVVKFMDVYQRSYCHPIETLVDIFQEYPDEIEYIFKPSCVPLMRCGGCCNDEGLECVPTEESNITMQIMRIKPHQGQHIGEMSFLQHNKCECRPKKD
Nature of the assay: Spot phage ELISA. Format: binding. The protocol: After four rounds of binding selection, individual phage clones were picked and inoculated into 450 μl 2YT media containing 50 µg/ml Carbenecillin and M13-KO7 helper phage in 96-well blocks, which were grown at 37° C. overnight. The supernatant was analyzed with spot phage ELISA as follows: hVEGF(8-109) or BSA were coated on 384-well MAXISORP™ immunoplates and phage supernatant diluted (1:3) with PBT buffer was added to the wells. The plates were washed and bound phage was detected with anti-M13-HRP followed by TMB substrate. In these assays, phage binding to BSA alone was tested in parallel to assess background binding. Clones whose binding signals for hVEGF-A (8-109) were more than 3 times higher than to BSA (background) were considered positive. Positive clones were subjected to DNA sequence analysis.
(In an ELISA, binding on a coated surface is turned into a signal by an enzyme label.)

Where [1] appears, read: spot phage ELISA signal, EETI-II-based binders against hVEGF-A, Table 19.
[2] abbreviates: loop 2 variants based on VEGF_CKP9.63 framework, Table 27.

With `CC[C@H](C)[C@@H]1NC(=O)[C@H](CCC(=O)O)NC(=O)[C@H](Cc2c[nH]cn2)NC(=O)[C@@H]2CCCN2C(=O)[C@@H]2CCCN2C(=O)[C@H](Cc2c[nH]c3ccccc23)NC(=O)[C@@H]2CCCN2C(=O)[C@H]([C@@H](C)O)NC(=O)[C@H]([C@@H](C)O)NC(=O)[C@@H](NC(=O)CN)CSSC[C@@H]2NC(=O)CNC(=O)[C@H](C)NC(=O)[C@H](CC(C)C)NC(=O)[C@@H]3CSSC[C@@H](C(=O)NCC(=O)O)NC(=O)[C@H](Cc4ccccc4)NC(=O)CNC(=O)[C@H](CC(N)=O)NC(=O)[C@@H]4CCCN4C(=O)CNC(=O)[C@H](CSSC[C@H](NC(=O)[C@H](CCSC)NC1=O)C(=O)N[C@@H](CCCCN)C(=O)N[C@@H](CCC(N)=O)C(=O)N[C@@H](CC(=O)O)C(=O)N[C@@H](CO)C(=O)N[C@@H](CC(=O)O)C(=O)N3)NC(=O)[C@H](C(C)C)NC2=O` [VEGF_CKP12] (H-GCTTPWPPHEIMCKQDSDCLAGCVCGPNGFCG-OH; disulfide 2-23, 13-25, 19-31; N-terminus and C-terminus assumed), where the note is “Table 19”, the “S/N (signal to noise ratio as compared to BSA control)” value was 55.2. Under setting [1], this compound returned an ELISA of 3.5.

On to `CC[C@H](C)[C@@H]1NC(=O)[C@H](Cc2c[nH]c3ccccc23)NC(=O)[C@H](Cc2c[nH]cn2)NC(=O)[C@@H]2CCCN2C(=O)[C@H](CCCCN)NC(=O)[C@H](Cc2c[nH]c3ccccc23)NC(=O)[C@@H]2CCCN2C(=O)[C@H]([C@@H](C)O)NC(=O)[C@H](C(C)C)NC(=O)[C@@H](NC(=O)CN)CSSC[C@@H]2NC(=O)CNC(=O)[C@H](C)NC(=O)[C@H](CC(C)C)NC(=O)[C@@H]3CSSC[C@@H](C(=O)NCC(=O)O)NC(=O)[C@H](Cc4ccccc4)NC(=O)CNC(=O)[C@H](CC(N)=O)NC(=O)[C@@H]4CCCN4C(=O)CNC(=O)[C@H](CSSC[C@H](NC(=O)[C@H](CC(N)=O)NC1=O)C(=O)N[C@@H](CCCCN)C(=O)N[C@@H](CCC(N)=O)C(=O)N[C@@H](CC(=O)O)C(=O)N[C@@H](CO)C(=O)N[C@@H](CC(=O)O)C(=O)N3)NC(=O)[C@H](C(C)C)NC2=O` [VEGF_CKP13] (H-GCVTPWKPHWINCKQDSDCLAGCVCGPNGFCG-OH; disulfide 2-23, 13-25, 19-31; N-terminus and C-terminus assumed), for which the “S/N (signal to noise ratio as compared to BSA control)” value (Table 19) stood at 56.3. In addition, under setting [1], the ELISA turned out to be 3.5.

As for “GCDVMQPYWGCAGDELCLAGCVCHWYNSCG [VEGF_CKP9.63.30]”, the “S/N (signal to noise ratio as compared to BSA control)” value (Table 27) amounted to 26.0. In addition, under setting [2], the ELISA is 2.0.

With “GCDVMQPYWGCAGDFECLAGCVCHWYNSCG [VEGF_CKP9.63.42]”, the “S/N (signal to noise ratio as compared to BSA control)” value (Table 27) was determined as 23.1. Under setting [2], this compound displayed an ELISA of 1.7.

Take “GCDVMQPYWGCDGDFDCLAGCVCHWYNSCG [VEGF_CKP9.63.39]”: where the note is “Table 27”, the “S/N (signal to noise ratio as compared to BSA control)” value is 18.9. This compound returned an ELISA under setting [2] of 1.6.

As for “GCDVMQPYWGCDGDYQCLAGCVCHWYNSCG [VEGF_CKP9.63.18]”, the “S/N (signal to noise ratio as compared to BSA control)” value (Table 27) amounted to 17.3. Under setting [2], the ELISA came to 2.3.

With “GCDVMQPYWGCDLNYECLAGCVCHWYNSCG [VEGF_CKP9.63.87]”, the “S/N (signal to noise ratio as compared to BSA control)” value (Table 27) is 8.6. Also, the ELISA under setting [2] worked out at 0.9.

Regarding “GCDVMQPYWGCGADLSCLAGCVCHWYNSCG [VEGF_CKP9.63.62]”, the “S/N (signal to noise ratio as compared to BSA control)” value (Table 27) was found to be 25.4. Also, the ELISA under setting [2] is 1.8.

Turning to “GCDVMQPYWGCGDDLECLAGCVCHWYNSCG [VEGF_CKP9.63.14]”, the “S/N (signal to noise ratio as compared to BSA control)” value (Table 27) was found to be 21.3. This compound also showed an ELISA under setting [2] of 1.5.

For the compound “GCDVMQPYWGCGENLACLAGCVCHWYNSCG [VEGF_CKP9.63.54]”, where the note is “Table 27”, the “S/N (signal to noise ratio as compared to BSA control)” value is 19.9. This compound came in with an ELISA under setting [2] of 1.4.

For the compound “GCDVMQPYWGCGFDMDCLAGCVCHWYNSCG [VEGF_CKP9.63.65]”, the “S/N (signal to noise ratio as compared to BSA control)” value (Table 27) stood at 27.1. In addition, the ELISA under setting [2] was found to be 2.0.

Consider “GCDVMQPYWGCGLDEECLAGCVCHWYNSCG [VEGF_CKP9.63.37]”, for which the “S/N (signal to noise ratio as compared to BSA control)” value (Table 27) is reported as 8.6. The same compound gave an ELISA under setting [2] of 0.6.
